Measured values as given in US20200063132A1.

Biological target: human Mannose 6-Phosphate Receptor (M6PR, also known as IGF2R), endogenous on HUVEC and hCMEC/D3 cells (human) (UniProt P11717)
Experiment: cell-based or functional assay

Chain of human Mannose 6-Phosphate Receptor (M6PR, also known as IGF2R), endogenous on HUVEC and hCMEC/D3 cells (human) (P11717 41-2491): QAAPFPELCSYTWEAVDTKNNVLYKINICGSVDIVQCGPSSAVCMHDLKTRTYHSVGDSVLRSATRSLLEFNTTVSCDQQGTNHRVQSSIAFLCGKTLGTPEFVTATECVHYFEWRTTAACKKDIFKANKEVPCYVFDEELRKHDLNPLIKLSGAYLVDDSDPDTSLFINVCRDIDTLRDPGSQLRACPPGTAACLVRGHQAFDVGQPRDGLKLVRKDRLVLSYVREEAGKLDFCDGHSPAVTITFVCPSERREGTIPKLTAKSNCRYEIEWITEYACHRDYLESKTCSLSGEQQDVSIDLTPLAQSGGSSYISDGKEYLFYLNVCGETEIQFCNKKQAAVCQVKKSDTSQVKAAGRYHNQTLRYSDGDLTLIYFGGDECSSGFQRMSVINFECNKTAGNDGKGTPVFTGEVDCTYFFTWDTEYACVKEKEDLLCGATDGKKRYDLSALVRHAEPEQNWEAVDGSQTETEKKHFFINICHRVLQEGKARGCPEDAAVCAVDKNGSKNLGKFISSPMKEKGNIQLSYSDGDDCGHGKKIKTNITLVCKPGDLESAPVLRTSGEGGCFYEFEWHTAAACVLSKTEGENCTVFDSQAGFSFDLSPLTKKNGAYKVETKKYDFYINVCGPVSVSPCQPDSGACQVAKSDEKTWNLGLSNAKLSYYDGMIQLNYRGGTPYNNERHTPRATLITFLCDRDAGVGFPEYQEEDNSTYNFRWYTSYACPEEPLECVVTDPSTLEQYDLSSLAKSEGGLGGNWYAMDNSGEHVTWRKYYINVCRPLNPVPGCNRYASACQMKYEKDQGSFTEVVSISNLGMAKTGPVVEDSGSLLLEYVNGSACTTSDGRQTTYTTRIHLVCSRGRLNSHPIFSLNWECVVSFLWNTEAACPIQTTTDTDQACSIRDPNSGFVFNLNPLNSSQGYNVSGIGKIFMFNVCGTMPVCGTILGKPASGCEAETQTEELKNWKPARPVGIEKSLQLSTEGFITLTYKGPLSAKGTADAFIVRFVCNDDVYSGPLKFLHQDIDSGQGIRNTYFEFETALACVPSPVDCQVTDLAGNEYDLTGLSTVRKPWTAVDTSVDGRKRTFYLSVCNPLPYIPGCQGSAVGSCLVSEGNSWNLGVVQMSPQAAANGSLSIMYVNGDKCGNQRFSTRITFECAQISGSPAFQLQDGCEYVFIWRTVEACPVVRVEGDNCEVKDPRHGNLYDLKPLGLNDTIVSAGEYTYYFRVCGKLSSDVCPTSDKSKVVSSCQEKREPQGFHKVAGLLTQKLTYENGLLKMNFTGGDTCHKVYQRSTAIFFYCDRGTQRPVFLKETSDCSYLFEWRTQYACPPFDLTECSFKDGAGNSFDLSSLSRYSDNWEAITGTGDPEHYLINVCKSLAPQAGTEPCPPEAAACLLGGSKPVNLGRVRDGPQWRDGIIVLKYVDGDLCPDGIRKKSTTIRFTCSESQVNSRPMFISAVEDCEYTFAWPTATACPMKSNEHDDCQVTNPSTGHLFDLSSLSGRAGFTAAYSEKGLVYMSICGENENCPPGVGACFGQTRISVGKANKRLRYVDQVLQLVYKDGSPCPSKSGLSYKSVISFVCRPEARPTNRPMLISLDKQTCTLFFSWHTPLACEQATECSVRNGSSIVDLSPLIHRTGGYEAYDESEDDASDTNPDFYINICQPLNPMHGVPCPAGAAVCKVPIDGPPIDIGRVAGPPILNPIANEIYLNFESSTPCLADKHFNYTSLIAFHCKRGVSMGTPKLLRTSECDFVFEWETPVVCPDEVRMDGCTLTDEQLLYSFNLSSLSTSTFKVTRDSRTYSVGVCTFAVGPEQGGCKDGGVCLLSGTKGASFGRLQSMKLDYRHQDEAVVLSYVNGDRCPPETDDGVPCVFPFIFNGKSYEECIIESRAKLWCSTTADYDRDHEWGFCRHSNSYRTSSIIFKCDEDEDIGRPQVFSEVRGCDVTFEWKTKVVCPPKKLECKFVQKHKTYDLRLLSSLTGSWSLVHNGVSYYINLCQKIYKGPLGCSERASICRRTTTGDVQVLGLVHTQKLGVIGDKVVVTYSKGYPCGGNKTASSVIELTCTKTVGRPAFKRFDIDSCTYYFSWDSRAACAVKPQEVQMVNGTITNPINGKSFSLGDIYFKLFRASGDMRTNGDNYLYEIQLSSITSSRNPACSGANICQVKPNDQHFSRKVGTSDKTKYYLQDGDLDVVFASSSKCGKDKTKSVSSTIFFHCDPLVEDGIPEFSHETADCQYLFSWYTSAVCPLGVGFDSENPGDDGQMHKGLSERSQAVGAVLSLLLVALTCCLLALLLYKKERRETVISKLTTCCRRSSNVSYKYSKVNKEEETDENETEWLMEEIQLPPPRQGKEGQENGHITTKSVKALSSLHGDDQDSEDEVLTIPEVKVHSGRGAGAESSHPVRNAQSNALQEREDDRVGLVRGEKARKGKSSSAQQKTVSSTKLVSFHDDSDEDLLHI

- IC50 of the M6P inhibitor (mannose 6-phosphate, a small molecule) on uptake of IDUA-myc by HUVEC, 1 h, intracellular IDUA activity: 348 µM
- IC50 of the M6P inhibitor (mannose 6-phosphate, a small molecule) on uptake of IDUA-myc by hCMEC/D3 cells, 1 h, intracellular IDUA activity: 57.2 µM
Substance: IDUA-myc fusion protein (human α-L-iduronidase with myc tag, from conditioned medium of HEK 293-based cells stably overexpressing human IDUA cDNA) (from UniProt P35475 28-653) (enzyme)
